Assay results as given in publication PMC4465122 (EBioMedicine, 2015).

Biological target: the molecule itself
Assay: cross-linking

| Protein | stoichiometry N |
| --- | --- |
| recombinant human prolidase (rhPEPD) (enzyme) MAAATGPSFWLGNETLKVPLALFALNRQRLCERLRKNPAVQAGSIVVLQGGEETQRYCTDTGVLFRQESFFHWAFGVTEPGCYGVIDVDTGKSTLFVPRLPASHATWMGKIHSKEHFKEKYAVDDVQYVDEIASVLTSQKPSVLLTLRGVNTDSGSVCREASFDGISKFEVNNTILHPEIVECRVFKTDMELEVLRYTNKISSEAHREVMKAVKVGMKEYELESLFEHYCYSRGGMRHSSYTCICGSGENSAVLHYGHAGAPNDRTIQNGDMCLFDMGGEYYCFASDITCSFPANGKFTADQKAVYEAVLRSSRAVMGAMKPGVWWPDMHRLADRIHLEELAHMGILSGSVDAMVQAHLGAVFMPHGLGHFLGIDVHDVGGYPEGVERIDEPGLRSLRTARHLQPGMVLTVEPGIYFIDHLLDEALADPARASFLNREVLQRFRGFGGVRIEEDVVVTDSGIELLTCVPRTVEEIEACMAGCDKAFTPFSGPK | 2 |
| rhPEPD^G278D, enzymatically inactive mutant of recombinant human prolidase (enzyme) MAAATGPSFWLGNETLKVPLALFALNRQRLCERLRKNPAVQAGSIVVLQGGEETQRYCTDTGVLFRQESFFHWAFGVTEPGCYGVIDVDTGKSTLFVPRLPASHATWMGKIHSKEHFKEKYAVDDVQYVDEIASVLTSQKPSVLLTLRGVNTDSGSVCREASFDGISKFEVNNTILHPEIVECRVFKTDMELEVLRYTNKISSEAHREVMKAVKVGMKEYELESLFEHYCYSRGGMRHSSYTCICGSGENSAVLHYGHAGAPNDRTIQNGDMCLFDMDGEYYCFASDITCSFPANGKFTADQKAVYEAVLRSSRAVMGAMKPGVWWPDMHRLADRIHLEELAHMGILSGSVDAMVQAHLGAVFMPHGLGHFLGIDVHDVGGYPEGVERIDEPGLRSLRTARHLQPGMVLTVEPGIYFIDHLLDEALADPARASFLNREVLQRFRGFGGVRIEEDVVVTDSGIELLTCVPRTVEEIEACMAGCDKAFTPFSGPK | 2 |
